Experimental data taken from patent US20090155285A1 (Eli Lilly, published 2009).

B1: 1D11.16 (antibody, from another filing, V domains shown)
VH: QVQLQQSGPELVRPGASVKLSCKASGYIFITYWMNWVKQRPGQGLEWIGQIFPASGSTNYNEMFEGKATLTVDTSSSTAYMQLSSLTSEDSAVYYCARGDGNYALDAMDYWGQGTSVTVSS
VL: DIVLTQSPASLAVSLGQRATISCRASESVDSYGNSFMHWYQQKSGQPPKLLIYLASNLESGVPARFSGSGSRTDFTLTIDPVEADDAATYYCQQNNEDPLTFGAGTKLEIK
B2: mAb 12.4 (antibody, human IgG4 S228P, kappa, V domains shown)
VH: QVQLVQSGAEVKKPGASVKVSCKASGYTFTSYWMNWVRQAPGQGLEWMGQIFPALGSTNYGEMFEGRVTMTTDTSTSTAYMELRSLRSDDTAVYYCARGIGNYALDAMDYWGQGTLVTVSS
VL: DIQMTQSPSSLSASVGDRVTITCRASESVDWWGNSFMHWYQQKPGKAPKLLIYLASNLESGVPSRFSGSGSGTDFTLTISSLQPEDFATYYCQQNIEDPLTFGGGTKVEIKR
notes: Full-length monoclonal antibody, made by linking the Fab to an IgG4 Fc region
B3: Fab 3.A (Fab, V domains shown)
VH: QVQLVQSGAEVKKPGASVKVSCKASGYTFTSYWMNWVRQAPGQGLEWMGQIFPASGSTNYGEMFEGRVTMTTDTSTSTAYMELRSLRSDDTAVYYCARGIGNYALDAMDYWGQGTLVTVSS
VL: DIQMTQSPSSLSASVGDRVTITCRASESVDFWGNSFMHWYQQKPGKAPKLLIYLASNLESGVPSRFSGSGSGTDFTLTISSLQPEDFATYYCQQNIEDPLTFGGGTKVEIKR
notes: The mAb was made by linking the Fab to an IgG4 Fc region, so the mAb's chains are named; The heavy chain entry also holds the Fc, which is not in the Fab
B4: Fab 4.17 (Fab, V domains shown)
VH: QVQLVQSGAEVKKPGASVKVSCKASGYTFTSYWMNWVRQAPGQGLEWMGQIFPFSGSTNYNEMFEGRVTMTTDTSTSTAYMELRSLRSDDTAVYYCARGIGNYALDAMDYWGQGTLVTVSS
VL: DIQMTQSPSSLSASVGDRVTITCRASESVDFWGNSFMHWYQQKPGKAPKLLIYLASNLESGVPSRFSGSGSGTDFTLTISSLQPEDFATYYCQQNAEDPLTFGGGTKVEIKR
notes: as for B3
B5: mAb 3.A (antibody, human IgG4 S228P, kappa, V domains shown)
VH: QVQLVQSGAEVKKPGASVKVSCKASGYTFTSYWMNWVRQAPGQGLEWMGQIFPASGSTNYGEMFEGRVTMTTDTSTSTAYMELRSLRSDDTAVYYCARGIGNYALDAMDYWGQGTLVTVSS
VL: DIQMTQSPSSLSASVGDRVTITCRASESVDFWGNSFMHWYQQKPGKAPKLLIYLASNLESGVPSRFSGSGSGTDFTLTISSLQPEDFATYYCQQNIEDPLTFGGGTKVEIKR
notes: as for B2
B6: mAb 12.7 (antibody, human IgG4 S228P, kappa, V domains shown)
VH: QVQLVQSGAEVKKPGASVKVSCKASGYTFTSEWMNWVRQAPGQGLEWMGQIFPALGSTNYNEMYEGRVTMTTDTSTSTAYMELRSLRSDDTAVYYCARGIGNYALDAMDYWGQGTLVTVSS
VL: DIQMTQSPSSLSASVGDRVTITCRASESVDFYGNSFMHWYQQKPGKAPKLLIYLASNLESGVPSRFSGSGSGTDFTLTISSLQPEDFATYYCQQNIEDPLTFGGGTKVEIKR
notes: as for B2
B7: Fab 12.4 (Fab, V domains shown)
VH: QVQLVQSGAEVKKPGASVKVSCKASGYTFTSYWMNWVRQAPGQGLEWMGQIFPALGSTNYGEMFEGRVTMTTDTSTSTAYMELRSLRSDDTAVYYCARGIGNYALDAMDYWGQGTLVTVSS
VL: DIQMTQSPSSLSASVGDRVTITCRASESVDWWGNSFMHWYQQKPGKAPKLLIYLASNLESGVPSRFSGSGSGTDFTLTISSLQPEDFATYYCQQNIEDPLTFGGGTKVEIKR
notes: as for B3
B8: mAb 4.17 (antibody, human IgG4 S228P, kappa, V domains shown)
VH: QVQLVQSGAEVKKPGASVKVSCKASGYTFTSYWMNWVRQAPGQGLEWMGQIFPFSGSTNYNEMFEGRVTMTTDTSTSTAYMELRSLRSDDTAVYYCARGIGNYALDAMDYWGQGTLVTVSS
VL: DIQMTQSPSSLSASVGDRVTITCRASESVDFWGNSFMHWYQQKPGKAPKLLIYLASNLESGVPSRFSGSGSGTDFTLTISSLQPEDFATYYCQQNAEDPLTFGGGTKVEIKR
notes: as for B2
B9: mAb 12.8 (antibody, human IgG4 S228P, kappa, V domains shown)
VH: QVQLVQSGAEVKKPGASVKVSCKASGYTFTSYWMNWVRQAPGQGLEWMGQIFPALGSTNYNEMFEGRVTMTTDTSTSTAYMELRSLRSDDTAVYYCARGIGNYALDAMDYWGQGTLVTVSS
VL: DIQMTQSPSSLSASVGDRVTITCRASESVDWYGNSFMHWYQQKPGKAPKLLIYYASNLESGVPSRFSGSGSGTDFTLTISSLQPEDFATYYCQQNAEDPLTFGGGTKVEIKR
notes: as for B2

Columns and labels:
mature human TGF-β3 [1] = molecular target: T1, mature human TGF-β3 (human, UniProt P10600 301-412); experiment: cell-based or functional assay
T1 sequence: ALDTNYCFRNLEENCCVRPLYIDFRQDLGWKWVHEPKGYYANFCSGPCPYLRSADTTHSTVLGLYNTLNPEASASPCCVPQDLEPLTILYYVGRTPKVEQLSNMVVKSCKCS

mature human TGF-β1 [2] = molecular target: T2, mature human TGF-β1 (human, UniProt P01137 279-390); experiment: cell-based or functional assay
T2 sequence (P01137 279-390 limits assumed): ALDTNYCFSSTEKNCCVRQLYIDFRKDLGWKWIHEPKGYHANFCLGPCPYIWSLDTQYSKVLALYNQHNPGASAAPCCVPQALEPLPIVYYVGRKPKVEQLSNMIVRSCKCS

mature human TGF-β2 [3] = molecular target: T3, mature human TGF-β2 (human, UniProt P61812 303-414); experiment: cell-based or functional assay
T3 sequence: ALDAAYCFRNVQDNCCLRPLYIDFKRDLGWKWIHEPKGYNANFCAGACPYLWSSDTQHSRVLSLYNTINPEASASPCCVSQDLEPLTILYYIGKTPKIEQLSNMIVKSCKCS

mature human TGF-β3 [4] = molecular target: T1, mature human TGF-β3; experiment: BIAcore 2000 SPR, antibody captured on Protein A, TGF-β injected
Method: (§1) Alternate methods of measuring kinetic constants are known, for example: affinity of an invention antibody for TGF-β1 (R&D Systems, Cat # 240-B/CF), TGF-β2 (RDI, Cat #RDI-1035), and TGF-β3 (RDI, Cat # RDI-1036/CF) is measured by BIAcore® 2000. Binding affinity measurements for full-length monoclonal antibodies of the invention are determined using Biacore. Except as noted, all reagents and materials are purchased from BIAcore® AB (Upsala, Sweden). All measurements made at room temperature. Samples are dissolved in HBS-EP buffer (150 mM sodium chloride, 3 mM EDTA, 0.01% (w/v) surfactant P-20, and 10 mM HEPES, pH 7.4). Recombinant Protein A is immobilized on all four flow cells of a CM4 sensor chip at a level of 400-450 response units (RUs) using an amine coupling kit. Binding is evaluated using multiple analytical cycles. Each cycle is performed at a flow rate of 50 μL/min consisting of the steps: injection of 12 μL of antibody at 0.5 μg/mL, injection of 250 μL of TGF-β1 (starting at 5 nM and using two-fold serial dilutions to 0.13 nM for each cycle, with two injections for each concentration) followed by either a short (5 min) or long (120 min) delay for dissociation, and regeneration using two injections of 50 μL of 10 mM glycine hydrochloride, pH 1.5. Association and dissociation rates per cycle are made by fitting the biosensor data from a simple association model using ClampXP (Center for Biomolecular Interaction Analysis, Univ. of Utah) to extract the kₒₙ and koff rate constants; the equilibrium binding constant Kd is calculated from Kd=koff/kₒₙ.
(§2) When mAbs are measured using the described assay, the results are as stated in Table 2 below.

mature human TGF-β1 [5] = molecular target: T2, mature human TGF-β1; experiment: as above
Method: as §1, §2

mature human TGF-β2 [6] = molecular target: T3, mature human TGF-β2; experiment: as above
Method: as §1, §2

mature human TGF-β1 [7] = molecular target: T2, mature human TGF-β1; experiment: KinExA 3000, calculated from Kd and kon
Method: (§3) A KinExA 3000 instrument (Sapidyne Inst. Inc.) measures binding kinetics. Briefly, antigen is covalently-coupled to azlactone beads and the binding of an invention free Fab to the beads is detected on the instrument. […] After incubation, free Fab in each equilibrated sample is determined on KinExA 3000 per manufacturer instructions. Kd values are determined using KinExA 3000 software. To measure kₒₙ, individual Fabs at 2 nM are mixed with 0-240 nM of antigen using the injection method according to manufacturer's instructions, and the unbound Fab is detected. The resulting data is used to calculate the kₒₙ with KinExA 3000 software. The koff is calculated using the formula K_{d=k}off/kₒₙ. Affinity data obtained under KinExA© conditions for Fab embodiments binding TGF Beta 1 are shown below in Table 1.

mature human TGF-β1 [8] = molecular target: T2, mature human TGF-β1; experiment: KinExA 3000, equilibrium in solution
Method: as §3

mature human TGF-β1 [9] = molecular target: T2, mature human TGF-β1; experiment: KinExA 3000, solution phase, antigen-coupled beads
Method: as §3

Binder	HT-2 cell neutralization assay, IC50 (Mean ng/ml) (mature human TGF-β3 [1])	HT-2 cell neutralization assay, IC50 (Mean ng/ml) (mature human TGF-β1 [2])	HT-2 cell neutralization assay, IC50 (Mean ng/ml) (mature human TGF-β2 [3])	Kd (mature human TGF-β3 [4])	koff (mature human TGF-β3 [4])	kon (mature human TGF-β3 [4])	Kd (mature human TGF-β1 [5])	koff (mature human TGF-β1 [5])	kon (mature human TGF-β1 [5])	Kd (mature human TGF-β2 [6])	koff (mature human TGF-β2 [6])	kon (mature human TGF-β2 [6])	koff (mature human TGF-β1 [7])	Kd (mature human TGF-β1 [8])	kon (mature human TGF-β1 [9])
B1	100 ng/mL	215 ng/mL	574 ng/mL												
B2	5.22 ng/mL	0.44 ng/mL	6.14 ng/mL	0.851 pM	1.53e-05 s⁻¹	1.76e+07 M⁻¹ s⁻¹	< 0.2 pM	6.71e-06 s⁻¹	> 4e+07 M⁻¹ s⁻¹	0.265 pM	6e-06 s⁻¹	2.42e+07 M⁻¹ s⁻¹			
B3													0.00031 s⁻¹	15 pM	2.1e+07 M⁻¹ s⁻¹
B4													6e-06 s⁻¹	0.28 pM	2.2e+07 M⁻¹ s⁻¹
B5	16.9 ng/mL	2.62 ng/mL	51.4 ng/mL	0.926 pM	2.38e-05 s⁻¹	2.9e+07 M⁻¹ s⁻¹	< 2 pM	0.000107 s⁻¹	> 5e+07 M⁻¹ s⁻¹	< 4 pM	0.000218 s⁻¹	> 5e+07 M⁻¹ s⁻¹			
B6	6.78 ng/mL	0.59 ng/mL	3.34 ng/mL	0.82 pM	1.28e-05 s⁻¹	1.56e+07 M⁻¹ s⁻¹	< 0.2 pM	7.93e-06 s⁻¹	> 5e+07 M⁻¹ s⁻¹	0.473 pM	1.11e-05 s⁻¹	2.8e+07 M⁻¹ s⁻¹			
B7													5.2e-05 s⁻¹	1.55 pM	3.4e+07 M⁻¹ s⁻¹
B8	15.8 ng/mL	0.42 ng/mL	3.65 ng/mL	1.53 pM	2.84e-05 s⁻¹	2.17e+07 M⁻¹ s⁻¹	< 0.2 pM	9.71e-06 s⁻¹	> 5e+07 M⁻¹ s⁻¹	0.529 pM	9.86e-06 s⁻¹	2.37e+07 M⁻¹ s⁻¹			
B9				0.54 pM	1.12e-05 s⁻¹	1.85e+07 M⁻¹ s⁻¹	< 0.2 pM	7.92e-06 s⁻¹	> 5e+07 M⁻¹ s⁻¹	1 pM	1.22e-05 s⁻¹	2.29e+07 M⁻¹ s⁻¹			
